Data from the supplement of paper PMC10567573.

B1: MYBL2 (parent)
chain: IAKHLKGRLGKQCRERWHNHLNPE
B2: GFOD1 (parent)
chain: SDDFCTFQMVLEGGVCCTVTLNFN

Variants of: B1
Test: protein stability index of a GFP-peptide fusion (GPS, HEK-293T) (PSI 1-6); higher = more stable
Conditions: c terminus: a fixed tail appended
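Further: lentivirally expressed fusions sorted by FACS into six bins by GFP to DsRed ratio, PSI derived from sequencing read proportions per bin multiplied by bin number.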

Protein stability index of substitutions, site by site:
P23: V 2.46 | M 2.21 | Q 1.79 | S 1.49 | F 3.01 | E 1.85 | R 2.11 | Y 1.33 | D 1.89 | C 2.4 | T 2.19 | I 2.14 | L 1.66 | H 2.1 | G 2.03 | A 2.62 | N 1.93 | W 1.98 | K 2.26
L21: G 1.98 | I 2.29 | Q 2.47 | S 1.97 | W 1.79 | C 1.69 | T 2.3 | K 2.79 | N 2.22 | H 1.75 | F 1.91 | R 2.34 | V 2.23 | D 2.17 | A 2.16 | E 2.88 | M 1.47 | Y 1.85 | P 2.97
H20: F 1.92 | T 2.09 | Q 1.84 | C 2.44 | R 1.21 | Y 1.62 | E 2.35 | M 1.06 | D 1.96 | N 2.1 | V 2.58 | P 2.41 | I 1.77 | G 1.87 | W 2.57 | K 2.18 | L 2.42 | S 1.54
N22: I 2.09 | S 2.29 | H 1.91 | K 1.51 | W 2.6 | C 1.92 | G 1.43 | V 2.44 | M 2.58 | P 1.35 | T 2.53 | L 2.24 | E 2.42 | R 1.64 | A 1.73 | Y 2.45 | Q 2.05 | D 2.06 | F 2.7
E24: C 1.41 | T 2.21 | W 1.79 | H 2 | R 2.75 | Q 1.4 | K 2.68 | S 1.81 | F 2.82 | V 3.05 | L 2.54 | M 3.97 | G 3 | P 2.12 | D 2.34 | I 2.27 | N 2.35 | A 2.08

Variants of: B2
Test: as above
Conditions: c terminus: a fixed tail appended

Protein stability index: each site, then its substitutions
C16: G 3.63 | Q 2.45 | D 2.56 | A 4.12 | V 2.46 | T 3.75 | H 3.09 | S 3.6 | P 2.65 | N 2.89 | K 2.95 | Y 2.76 | I 3.88 | F 1.78 | W 2.8 | E 2.24
G13: E 2.48 | L 4.34 | N 2.32 | A 3.65 | Q 3.22 | I 2.35 | V 2.5 | F 2.3 | P 2.92 | K 3.14 | M 2.94 | R 3.71 | D 3.2
C5: Q 3.77 | L 3.9 | V 3.65 | A 1.58 | F 2.08 | K 2.39 | R 3.13 | M 3.18 | I 3.26 | D 2.59 | H 2.97
V10: Q 1.29 | M 1.84 | H 2.2 | S 2.04 | D 3.42 | I 1 | P 2.35 | T 2.36 | A 2.91 | L 2.58 | C 3.77 | N 1.83 | W 3.71 | F 4.27 | K 2.56 | Y 1.13
V19: C 3.15 | A 1.95
Q8: M 3.81 | Y 1.44 | E 2.71 | A 3.01 | K 3.33 | W 2.86 | D 2.45 | R 4.3 | N 2.13 | C 2.98 | G 1.72 | V 3.25 | I 3.21 | L 3.02 | H 3.2
S1: Q 1.76 | D 2.52 | E 1.75 | R 2.98 | Y 3.3 | T 3.26 | A 3.07 | N 2.42 | M 2.15 | K 3.01 | H 2.21 | P 2.84
T18: Y 2.44 | N 2.33 | H 2.14 | V 3.91 | R 1.48 | D 3.76 | A 3.01 | L 2.5 | W 1.95 | E 3.76 | C 2.71 | I 3.52 | F 2.37 | G 3.96 | M 2.07
D2: E 3.11 | Q 3.58 | M 1.27 | C 3.12 | T 3.29 | A 3.55 | L 3.05 | S 3.14 | N 3.57 | G 2.84 | H 2.72 | Y 3.72
G14: Y 1.83 | M 2.54 | L 3.96 | K 2.74 | N 1.78 | W 2.93 | D 3.01 | P 2.84 | E 2.08 | C 2.19 | A 2.87 | Q 1.74 | R 1.6
F7: G 2.88 | H 2.26 | K 1.93 | P 1.46 | N 1.63 | Y 2.77 | D 1.59 | E 2.03 | T 2.64 | V 1.98 | W 2.67
V15: I 1.72 | H 4.25 | K 2.27 | R 3.84 | Q 2.94 | C 2.55 | M 3.15 | P 2.97 | Y 4.1 | D 2.58 | E 2.33 | F 3.41 | L 4.13
E12: W 2.6 | M 3.38 | A 3.59 | C 2.46 | V 3.03 | S 3.99 | L 4.46 | I 2.56 | H 2.37 | N 3.79 | F 2.27 | T 1.99 | G 3.33 | Q 2.74
C17: D 1.8 | F 3.18 | P 2.66 | L 3.21 | A 2.49 | K 2.52 | N 2.77 | V 1.89 | H 2.13 | E 1.21 | Q 2.87 | I 2.36 | W 2.79 | T 3.25
M9: V 2.59 | P 1.27 | L 2.7 | K 1.8 | E 1.42 | A 2.43 | F 2.5 | Q 1.55 | I 3.34 | H 2.74 | C 2.77 | D 2.18 | G 3.57 | W 2.28 | Y 2.76 | T 3.09
L11: V 3.22 | I 2.51 | A 1.26 | D 3.52 | R 3.43 | K 2.9 | H 3.05 | P 3.4 | F 3.38 | Y 3.1
F4: H 1.87 | M 3.37 | Q 2.56 | S 2.38 | L 3.55 | T 3.91 | R 3.19 | D 2.46 | V 2.91 | K 1.77 | N 3.13 | C 3.57 | E 1.81 | Y 2.63 | I 3.55
D3: I 1.7 | Y 4 | G 3.28 | N 2.68 | L 2.58 | A 2.55 | K 3.76 | Q 2.69 | P 3.01 | V 3.3
T6: I 2.48 | E 2.56 | F 2.48 | G 2.51 | M 3.02 | P 1.65 | D 3.22 | Y 1.92 | N 2.54 | A 2.79 | H 2.12 | K 2.04 | W 2.35
